The results in this text go back to patent US20120134993A1.

The target in test [1] is recombinant human FGF-8b (human) (UniProt P55075). Description: cell-based or functional assay.
Test [2] concerns the target recombinant human FGF-17 (human) (UniProt O60258). Nature of the test: direct binding ELISA, FGF-17 coated, FGFR-Fc titrated with heparin, anti-human Fc-HRP. (ELISA stands for enzyme-linked immunosorbent assay.)
Test [3] addresses recombinant human FGF-8b (human) (UniProt P55075). Nature of the test: direct binding ELISA, FGF-8b coated, FGFR-Fc titrated with heparin, anti-human Fc-HRP.
For test [4], the target named is recombinant human FGF1 (human) (UniProt P05230). Description: cell-based or functional assay.
Sequence of recombinant human FGF1 (human) (P05230 16-155 limits assumed): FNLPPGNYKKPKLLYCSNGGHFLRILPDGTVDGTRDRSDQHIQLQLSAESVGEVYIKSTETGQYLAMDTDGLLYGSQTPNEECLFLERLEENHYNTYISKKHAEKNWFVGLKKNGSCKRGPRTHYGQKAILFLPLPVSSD
The target in the next test is human FGF-9 (human) (UniProt P31371). Nature of the test: cell-based or functional assay.
The target in test [5] is recombinant human FGF4 (human) (UniProt P08620). Nature of the test: cell-based or functional assay.
Sequence of recombinant human FGF4 (human) (P08620 31-206 limits assumed): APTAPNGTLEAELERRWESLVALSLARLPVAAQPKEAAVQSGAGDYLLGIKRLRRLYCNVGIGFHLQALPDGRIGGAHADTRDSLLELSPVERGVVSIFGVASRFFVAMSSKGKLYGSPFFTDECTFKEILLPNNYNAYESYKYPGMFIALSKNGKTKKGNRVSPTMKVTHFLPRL
Test [6] addresses recombinant human FGF6 (human) (UniProt P10767). Nature of the test: cell-based or functional assay.
Test [7] addresses recombinant human FGF2 (human) (UniProt P09038). Description: cell-based or functional assay.
A further test has as its target human VEGF-A (human) (UniProt P15692). Nature of the test: SPR (Biacore T100), VEGF-A immobilized, 100 nM VEGFR-2-Fc5 injected, 1:1 dissociation fit. For orientation: In SPR one partner is held on a chip, and binding of the other changes the refractive index at the surface.

Sequence of recombinant human FGF-8b (human) (P55075 other isoform, or with tags, fused parts or gaps limits assumed): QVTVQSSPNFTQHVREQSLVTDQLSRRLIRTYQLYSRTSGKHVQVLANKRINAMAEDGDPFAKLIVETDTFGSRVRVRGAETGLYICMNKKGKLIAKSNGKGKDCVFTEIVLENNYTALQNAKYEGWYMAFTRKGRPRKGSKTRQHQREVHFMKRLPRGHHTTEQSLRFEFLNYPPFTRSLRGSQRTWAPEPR
Sequence of recombinant human FGF2 (human) (P09038 143-288 limits assumed): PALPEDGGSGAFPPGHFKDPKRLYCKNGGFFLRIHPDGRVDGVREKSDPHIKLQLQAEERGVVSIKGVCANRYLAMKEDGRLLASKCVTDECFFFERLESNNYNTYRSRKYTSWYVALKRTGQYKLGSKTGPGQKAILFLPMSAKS
Sequence of recombinant human FGF6 (human) (P10767 83-208 limits assumed): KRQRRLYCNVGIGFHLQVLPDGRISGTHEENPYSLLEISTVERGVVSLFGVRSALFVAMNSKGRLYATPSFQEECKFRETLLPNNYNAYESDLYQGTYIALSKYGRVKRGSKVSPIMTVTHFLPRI
Sequence of human VEGF-A (human) (P15692 other isoform, or with tags, fused parts or gaps limits assumed): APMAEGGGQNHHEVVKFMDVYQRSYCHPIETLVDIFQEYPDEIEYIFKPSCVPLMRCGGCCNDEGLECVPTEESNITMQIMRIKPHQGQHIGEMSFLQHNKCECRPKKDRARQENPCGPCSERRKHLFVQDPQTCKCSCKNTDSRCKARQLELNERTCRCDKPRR
Sequence of recombinant human FGF-17 (human) (O60258 23-216 limits assumed): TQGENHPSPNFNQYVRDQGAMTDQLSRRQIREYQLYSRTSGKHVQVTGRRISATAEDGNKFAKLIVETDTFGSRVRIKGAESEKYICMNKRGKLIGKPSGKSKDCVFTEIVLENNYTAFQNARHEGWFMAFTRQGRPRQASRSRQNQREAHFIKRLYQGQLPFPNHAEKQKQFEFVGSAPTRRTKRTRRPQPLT
Sequence of human FGFR1-Fc (R&D Systems) (P11362 22-376): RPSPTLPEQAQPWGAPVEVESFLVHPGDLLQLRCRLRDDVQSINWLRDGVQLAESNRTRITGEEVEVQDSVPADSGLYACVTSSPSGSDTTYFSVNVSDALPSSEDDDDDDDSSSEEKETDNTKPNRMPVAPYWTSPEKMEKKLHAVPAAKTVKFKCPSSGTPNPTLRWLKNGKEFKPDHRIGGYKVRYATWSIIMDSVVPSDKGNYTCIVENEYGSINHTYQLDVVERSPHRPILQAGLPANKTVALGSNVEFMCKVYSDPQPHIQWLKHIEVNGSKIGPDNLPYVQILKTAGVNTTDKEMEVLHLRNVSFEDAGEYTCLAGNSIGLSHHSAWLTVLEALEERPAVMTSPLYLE

In the case of “FGFR2alphaIIIc(145-377)(S252W) Fc5, truncated FGFR2-Fc S252W (A2560F) (Fc fusion)”, in test [1], the Proliferation IC50, FGF8b-stimulated LNCap cells (3H-thymidine) amounted to 0.01 nM.
As usually defined, the IC50 is the point on the concentration scale where inhibition reaches its midpoint. As to “human FGFR3-Fc (R&D Systems) (from UniProt P22607 23-375) (Fc fusion)”, the half-maximal inhibitory concentration (IC50) in test [2] was 30.1 nM; in test [3], 23.4 nM. Further, the IC50, FGF-stimulated HUVEC proliferation (3H-thymidine) in [4] was determined as 0.53 nM; in test [5], 1.06 nM; in [6] it was 9.96 nM; in test [7], 5.5 nM. This substance also yielded a Proliferation IC50, FGF-9-stimulated HCO osteoblasts (3H-thymidine) with human FGF-9 (human) of 0.44 nM. For the same substance, the Proliferation IC50, FGF8b-stimulated LNCap cells (3H-thymidine) in [1] was determined as 0.79 nM.
“FGFR2alphaIIIc(145-377) Fc5, truncated FGFR2-Fc (A2559F) (Fc fusion)”: the Proliferation IC50, FGF8b-stimulated LNCap cells (3H-thymidine) in [1] was found to be 0.3 nM.
For “human FGFR1-Fc (R&D Systems) (from UniProt P11362 22-376) (Fc fusion)”, the IC50, FGF-stimulated HUVEC proliferation (3H-thymidine) was 0.63 nM in test [4], 0.53 nM in test [5], 0.42 nM in test [6] and 0.92 nM in [7]. This substance registered a Proliferation IC50, FGF-9-stimulated HCO osteoblasts (3H-thymidine) with human FGF-9 (human) of 1.1 nM.
As usually defined, the koff is the rate constant with which the complex falls apart. Read a high koff as fast dissociation. Substance “VEGFR-2-Fc5 (from UniProt P0DOX5 218-449) (Fc fusion)” gave a dissociation rate constant (koff) in the test with human VEGF-A (human) of 0.0002 s⁻¹.
With “FGFR2alphaIIIc(145-377)(P253R) Fc5, truncated FGFR2-Fc P253R (A2561F) (Fc fusion)”, in test [1], the Proliferation IC50, FGF8b-stimulated LNCap cells (3H-thymidine) turned out to be 0.01 nM.
For “human FGFR2-Fc (R&D Systems) (from UniProt P21802 22-377) (Fc fusion)”, the IC50, FGF-stimulated HUVEC proliferation (3H-thymidine) in test [4] came to 0.42 nM; in [5] it was 0.48 nM; in [6], 0.3 nM; in test [7], 0.85 nM. The Proliferation IC50, FGF-9-stimulated HCO osteoblasts (3H-thymidine) in the test with human FGF-9 (human) was found to be 0.49 nM. The Proliferation IC50, FGF8b-stimulated LNCap cells (3H-thymidine) in test [1] is 0.29 nM.
